Target: human cathepsin B (human, UniProt P07858 80-333)
Assay: second-order association rate constant from continuous hydrolysis of (Z-FR)2-R110, pseudo-first order conditions, 20 nM cathepsin B, 200 or 400 nM Spi2A
Protocol: Kinetics of cathepsin B inhibition by Spi2A. […] Briefly, 20 nM cathepsin B was added to 5 μM substrate, in presence or in absence of 200 or 400 nM (10- or 20-fold excess respectively) of Spi2A in activation buffer. Reactions were performed in 96-well microtitre plates. The final reaction volume was 200 μl. The rate of substrate hydrolysis was continuously monitored for 3 min. The dead time for the measurement (the time between the addition of the enzyme to the substrate (with or without inhibitor) and the first spectrophotometric measurement was ˜30 s.

B1: Spi2A-3xFLAG (murine serine protease inhibitor 2A with a C-terminal 3xFLAG epitope tag) (other)
chain: MAGVSPAVFGCPDVTLGRNTAVREVQENVTSVDSLTLVSSNTDFAFSLYRKLVLKNPDENVVFSPFSICTALALLSLGAKSNTLKEILEGLKFNLTETPEPDIHQGFRYLLDLLSQPGNQVQISTGSALFIEKHLQILAEFKEKARALYQAEAFTADFQQPLKATKLINDYVSNHTQGKIKELISGLKESTLMVLVNYIYFKGKWKNPFDPNDTFKSEFYLDEKRSVIVSMMKTGYLTTPYFRDEELSCTVVELKYTGNASAMFILPDQGRMQQVEASLQPETLRKWKNSLKPRMIHELRLPKFSISTDYSLEHILPELGIREVFSTHADLSAITGTKDLRVSQVVHKAVLDVAEKGTEAAAATGMAGVGCCAVFDFLEIFFNRPFLMIISDTKAHIALFMAKVTNPERSTNFPNGEGASSQRLESKRLCFGDPLCLIGQ
notes: Purified from lysates of RelA-/- MEFs transduced with retrovirus encoding Spi2A-3xFLAG (ion exchange, then anti-FLAG column); The ORF was amplified from T cell cDNA; also called FLAG-tagged Spi2A; not shown: C-terminal 3xFLAG (22 amino acids) from the 3xFLAG-CMV-14 vector
kon: > 1e+06 M⁻¹ s⁻¹
